Read-outs that look alike come from different tables or passages of the source.

Holding throughout (assay): cross-linking
Test [1] deals with Z protein with Cys at residue 6, fused to maltose binding protein.
Test [2] has the same target. This is another data set of the same source.
Test [3] deals with Z protein with N-epsilon-fluoroacetyllysine at residue 6, fused to maltose binding protein.
Test [4] has the same target. The source holds these as a separate data set.
For test [5], the target named is Z protein with N-epsilon-fluoroacetyllysine at residue 24, fused to maltose binding protein.
The target is the same in test [6]. This is another data set of the same source.

Turning to “Zspa Affibody (Afb) with N-epsilon-fluoroacetyllysine at position 36 (designed binder)”, the crosslinking yield in test [1] worked out at 33%. The same substance displayed a crosslinking efficiency in test [2] of 88%.

“Zspa Affibody (Afb) with Cys at position 36 (designed binder)”: the crosslinking yield in test [3] amounted to 24%; in test [4] it was 64%.

Consider “Zspa Affibody (Afb) with Cys at position 7 (designed binder)”, for which the crosslinking yield in test [5] turned out to be 12%; in test [6], 34%.

Source of the values: article PMC5310709.
